Assay results from publication PMC3288383 (Journal of Molecular Biology, 2012).
“And” between values parts separate entries of the source, which are not always exact repeats. Equal values may be shown once. Blank lines part the entries; values can stand above or below the binder they belong to.

Assays:
[1] = biological target: T1, Jac1 (wild type), His-tagged (S. cerevisiae, UniProt P53193 11-184); experiment: pull-down
T1 sequence (looked up): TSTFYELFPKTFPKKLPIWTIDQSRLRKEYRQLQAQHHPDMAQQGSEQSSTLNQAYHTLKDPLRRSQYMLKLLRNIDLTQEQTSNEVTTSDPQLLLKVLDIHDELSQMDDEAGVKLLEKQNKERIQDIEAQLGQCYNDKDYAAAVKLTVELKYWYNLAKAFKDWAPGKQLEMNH

Jac1_(L106) = biological target: T2, Jac1_(L106) (S. cerevisiae, UniProt P53193 11-184, L106 to Ala); experiment: pull-down
T2 sequence (looked up): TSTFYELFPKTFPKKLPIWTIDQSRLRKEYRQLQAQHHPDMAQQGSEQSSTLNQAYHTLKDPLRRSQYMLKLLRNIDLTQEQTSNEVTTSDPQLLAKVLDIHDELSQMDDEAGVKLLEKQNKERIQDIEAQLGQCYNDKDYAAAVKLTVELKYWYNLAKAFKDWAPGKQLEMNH

Isu1His = biological target: T3, Isu1His (S. cerevisiae, UniProt Q03020 28-165); experiment: cell-based or functional assay
T3 sequence (looked up): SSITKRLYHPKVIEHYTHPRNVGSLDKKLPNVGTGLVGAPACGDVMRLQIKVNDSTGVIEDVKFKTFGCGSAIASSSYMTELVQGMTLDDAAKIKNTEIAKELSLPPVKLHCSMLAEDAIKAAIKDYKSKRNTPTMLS

Kd [1]: 690 nM and 800 nM | Kd (Jac1_(L106)): 250 ± 70 nM
B1: Isu1-GST (natural protein, S. cerevisiae, UniProt Q03020 28-165, looked up)
chain: SSITKRLYHPKVIEHYTHPRNVGSLDKKLPNVGTGLVGAPACGDVMRLQIKVNDSTGVIEDVKFKTFGCGSAIASSSYMTELVQGMTLDDAAKIKNTEIAKELSLPPVKLHCSMLAEDAIKAAIKDYKSKRNTPTMLS

stimulation of Ssq1 ATPase activity: increase of C0.5 against wt (Isu1His): ~15 fold
B2: Jac1Y (natural protein, S. cerevisiae, UniProt P53193 11-184, looked up)
chain: TSTFYELFPKTFPKKLPIWTIDQSRLRKEYRQLQAQHHPDMAQQGSEQSSTLNQAYHTLKDPLRRSQYMLKLLRNIDLTQEQTSNEVTTSDPQLLLKVLDIHDELSQMDDEAGVKLLEKQNKERIQDIEAQLGQCYNDKDYAAAVKLTVELKAWYNLAKAFKDWAPGKQLEMNH

stimulation of Ssq1 ATPase activity: C0.5 compared to the wt control (Isu1His): ~24 fold
B3: Jac1LLL (natural protein, S. cerevisiae, UniProt P53193 11-184, looked up)
chain: TSTFYELFPKTFPKKLPIWTIDQSRLRKEYRQLQAQHHPDMAQQGSEQSSTLNQAYHTLKDPLRRSQYMLKLLRNIDLTQEQTSNEVTTSDPQLAAKVADIHDELSQMDDEAGVKLLEKQNKERIQDIEAQLGQCYNDKDYAAAVKLTVELKYWYNLAKAFKDWAPGKQLEMNH
